Experimental findings from patent EP4703386A1 (Shanghai Sinobay Biotechnology Co., Ltd., dated 2026) are described below.

Assay [1] addresses T1, CD276 protein on tumor target cells (NCI-H292, SK-OV-3) (human, UniProt Q5ZPR3 29-534).
T1 construct: whole, on cells; for SK-OV-3 it is implied by the use of CD276-targeted BiTE and CAR; also called B7-H3; CD276-expressing target cells
T1 sequence (looked up): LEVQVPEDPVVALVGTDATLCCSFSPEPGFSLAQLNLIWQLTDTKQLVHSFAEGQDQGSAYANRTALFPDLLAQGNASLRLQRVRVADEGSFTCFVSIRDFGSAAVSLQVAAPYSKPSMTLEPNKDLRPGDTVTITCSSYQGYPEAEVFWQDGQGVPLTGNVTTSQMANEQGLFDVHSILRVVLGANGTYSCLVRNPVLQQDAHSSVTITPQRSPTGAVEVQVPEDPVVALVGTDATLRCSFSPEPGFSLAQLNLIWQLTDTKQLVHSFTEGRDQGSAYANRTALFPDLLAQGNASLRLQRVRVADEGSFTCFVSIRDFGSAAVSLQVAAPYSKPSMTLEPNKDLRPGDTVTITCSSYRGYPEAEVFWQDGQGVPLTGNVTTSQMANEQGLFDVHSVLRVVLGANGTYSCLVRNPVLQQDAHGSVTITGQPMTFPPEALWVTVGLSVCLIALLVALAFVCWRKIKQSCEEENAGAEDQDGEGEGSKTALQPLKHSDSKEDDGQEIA
Nature of the assay: flow cytometry on NCI-H292 cells, IgG-Fc-PE second antibody.

Assay [2] addresses T1, CD276 protein on tumor target cells …. Kind of assay: cell-based or functional assay.
Assay [3] shares this target. Nature of the assay: flow cytometry on NCI-H292 cell line (Fig. 3).

B1: Hu012-24 (antibody, IgG1, V domains shown)
VH: EVQLVQSGGGLVKPGGSLRLSCAASGFTFSRHSMNWVRQAPGKGLEWVSSISSNDEHIIYADSVKGRFTISRDNSKNTLYLEMNSLRAEDTAVYYCARASRYGGSYYGLDYWGQGTLVTVSS
VL: QTVVTQEPSFSVSPGGTVTLTCGLTSGSVSTTYFPSWYQQTPGQPPRRLIYNTNTRSSGVPDRFSGSIVGIKAALTITGAQAEDESDYYCALYLGSGIVEFGGGTKLTVL
notes: Full-length IgG1 (AbVec-hIgG1, AbVec-hIgKappa); also called candidate antibody Hu012-24
In assay [1], B1 yielded a positive rate of approximately 100%.

B2: CD276(Hu012-7)BiTE (bispecific antibody)
chain: DIVMTQSPSSLSTSIGDRVTITCRASQGISNFLAWFQQKPGKAPKSLIYAASRLQSGVPSKFSGSGSGTNFTLTISSLQPEDFATYYCQQYDSYPLTFGGGTKVEIKGGGGSGGGGSGGGGSEVQLVESGGGVVQPGRSLTLSCAASGFTFNGYSMHWVRQAPGKGLEWVAVMSSDGGNKYYADSVKGRFTISRDNSKNTLYLQMNGLRPEDTAVYYCARAVSSGWSLPFDFWGHGTLVTVSSGGGGSQVQLVQSGAEVKKPGASVKVSCKASGYTFTRYTMHWVRQAPGQGLEWMGYINPSRGYTNYNQKFKDRVTITADKSTSTAYMELSSLRSEDTAVYYCARYYDDHYCLDYWGQGTTVTVSSGGGGSGGGGSGGGGSGSEIVLTQSPATLSLSPGERATLSCSASSSVSYMNWYQQKPGKAPKRLIYDTSKLASGVPSRFSGSGSGTDFTLTINSLEAEDAATYYCQQWSSNPFTFGQGTKVEIKR
As to B2, in assay [2], the “fold increase in killing the NCI-H292 tumor cell line against control BiTE” value is 1.2 fold and the “fold increase in killing the SK-OV3 tumor cell line against control BiTE” value was 2.1 fold.

B3: Hu012-7-4-1BB-CD3ζ chimeric antigen receptor on lentivirus-transduced T cells (other)
chain: GDYKDDDDKGSEVQLVESGGGVVQPGRSLTLSCAASGFTFNGYSMHWVRQAPGKGLEWVAVMSSDGGNKYYADSVKGRFTISRDNSKNTLYLQMNGLRPEDTAVYYCARAVSSGWSLPFDFWGHGTLVTVSSGGGGSGGGGSGGGGSDIVMTQSPSSLSTSIGDRVTITCRASQGISNFLAWFQQKPGKAPKSLIYAASRLQSGVPSKFSGSGSGTNFTLTISSLQPEDFATYYCQQYDSYPLTFGGGTKVEIKTRTTTPAPRPPTPAPTIASQPLSLRPEACRPAAGGAVHTRGLDFACDIYIWAPLAGTCGVLLLSLVITLYCKRGRKKLLYIFKQPFMRPVQTTQEEDGCSCRFPEEEEGGCELRVKFSRSADAPAYKQGQNQLYNELNLGRREEYDVLDKRRGRDPEMGGKPRRKNPQEGLYNELQKDKMAEAYSEIGMKGERRRGKGHDGLYQGLSTATKDTYDALHMQALPPR
With B3, in assay [2], the “killing efficiency on SKOV3 cells, effector to target ratio 1:1” value is approximately 30% and the “killing efficiency on SKOV3 cells, effector to target ratio 2:1” value is more than 60%.

B4: Hu012-8 (antibody, IgG1, V domains shown)
VH: QVQLVQSGAEVKKPGASVRVSCKGSGYTFTDHHMYWVRQAPGQGLEWMGRINPNTGVTNYAQKFQGRVSMTRDTSINTVYLELRSLKSDDAAVYYCGRDQVVMVPGVPLDLGMDVWGQGTTVTVSS
VL: NIQMTQSPSSLSASVGDRVTITCRASQTISRYLNWYQQKPGKAPKLLIYAASSLQSGVPSRFSGSGSGADFTLTINTLQPEDFATYYCQQSYRTPQTFGQGTKVEIK
notes: Full-length IgG1; also called candidate antibody Hu012-8
As for B4, the positive rate in assay [1] was approximately 100%.

B5: Hu012-21 (antibody, IgG1, V domains shown)
VH: EVQLVQSGGGVVQPGRSLRLSCAASGFTFSSYGMHWVRQAPGKGLEWVAVISYDGSNKYYADSVKGRFTISRDNSKDTLYLQMNSLRAEDTAVYYCAKDKLMGWHNYGMDVWGQGTTVTVSS
VL: AIQLTQSPSSLSASVGDRVTITCRASQSINSYLNWYQQKPGKAPKVLIYAASNLQSGVPSRFSGSGSGTDFTLTISSLQPEDFATYYCQQSYSTPPTFGQGTKLEIK
notes: Full-length IgG1 (AbVec-hIgG1, AbVec-hIgKappa); also called candidate antibody Hu012-21
With B5, the binding result in assay [1] is listed as “binds”.

B6: Hu012-6 (antibody, IgG1, V domains shown)
VH: QMQLVQSGGGLVQPGGSLRLSCAASGFTFSSYWMSWVRQAPGKGLEWVANIKQDGSEKYYVDSVKGRFTISRDNAKNSLYLQMNSLRAEDTAVYYCARSPHYDFWRRDYYYGMDVWGQGTLVTVSS
VL: QSVLTQPPSVSATPGQTVTISCSGSTSNIATNYVSWYQHLPGSAPKLLIYDNNKRPSGIPDRFSGSKSGTSATLDIIGLQTGDEADYYCGVWDPSLTTYVFGTGTQLTAL
notes: Full-length IgG1 (AbVec-hIgG1, AbVec-hIgKappa); also called candidate antibody Hu012-6
Regarding B6, the binding result in assay [3] is reported as “binds”.

B7: Hu012-29 (antibody, V domains shown)
VH: EVQLVESGGGLVQPGGSLRLSCAASRNIFRFYTMGWYRQAPEKQRDLVARITSDGTTNYADSVKGRFTISRDNAKNTVYLQMNSLKPEDTAVYYCNTDLPLNTYWAQGTLVTVSS
VL: DIQMTQSPSSLSASVGDRVTITCRASQSISSSLNWYQHKPGKAPKLLIYSASILQSGVPSRFSGSGSGTDYTLTISSLQPEDFATYSCQQSYTTPYTFGLGTKLEIK
notes: Full-length IgG1 (AbVec-hIgG1, AbVec-hIgKappa); also called candidate antibody Hu012-29
With B7, the binding result in assay [1] is given as “binds”.

B8: Hu012-13 (antibody, IgG1, V domains shown)
VH: EVQLVQSGAEVKKPGASVKVSCKASGYTFTSYGISWVRQAPGQGLEWMGWISAYNGNTNYAQKLQGRVTMTTDTSTSTAYMELRSLRSDDTAVYYCARAPYYGGYDYWGQGTMVTVSS
VL: ETTLTQSPGTLSLSPGDRATLSCRASQSVRSSYLAWYQQKPGQAPRLVIYGASNRAAGIPDRFSGSGSGTDFTLTISGLEPEDFAVYYCQEYGYSLPNTFGQGTKLEIK
notes: Full-length IgG1 (AbVec-hIgG1, AbVec-hIgKappa); also called candidate antibody Hu012-13
B8: in assay [1], the binding result is “binds”.

B9: Hu012-1 (antibody, V domains shown)
VH: QVTLKESGGGLVQPGGSLRLSCAASGSIFNMYAMGWYRQAPGKQRELVASITSGGSTHYADSVKGRFTISRDNAKNTMYLQMNSLKPEDTAVYYCRQNDGMDYWGKGTLVTVSS
VL: QAGLTQPPSVSVAPGKTARITCGGNNIGSKSVHWYQQKPGQAPVVVIYDDSDRPSGIPERFSGSNSGNTATLTISRVEAGDEADFYCQVWDSSSDRYVFGTGTKLTVL
notes: Full-length IgG1 (AbVec-hIgG1, GenBank FJ475055.1; AbVec-hIgKappa, GenBank FJ475056.1); also called candidate antibody Hu012-1
In assay [1], B9 came in with a positive rate of approximately 100%.

B10: CD276(Hu012-8)BiTE (bispecific antibody)
chain: NIQMTQSPSSLSASVGDRVTITCRASQTISRYLNWYQQKPGKAPKLLIYAASSLQSGVPSRFSGSGSGADFTLTINTLQPEDFATYYCQQSYRTPQTFGQGTKVEIKGGGGSGGGGSGGGGSQVQLVQSGAEVKKPGASVRVSCKGSGYTFTDHHMYWVRQAPGQGLEWMGRINPNTGVTNYAQKFQGRVSMTRDTSINTVYLELRSLKSDDAAVYYCGRDQVVMVPGVPLDLGMDVWGQGTTVTVSSGGGGSQVQLVQSGAEVKKPGASVKVSCKASGYTFTRYTMHWVRQAPGQGLEWMGYINPSRGYTNYNQKFKDRVTITADKSTSTAYMELSSLRSEDTAVYYCARYYDDHYCLDYWGQGTTVTVSSGGGGSGGGGSGGGGSGSEIVLTQSPATLSLSPGERATLSCSASSSVSYMNWYQQKPGKAPKRLIYDTSKLASGVPSRFSGSGSGTDFTLTINSLEAEDAATYYCQQWSSNPFTFGQGTKVEIKR
Take B10: in assay [2], the “fold increase in killing the NCI-H292 tumor cell line against control BiTE” value came to 1.2 fold and the “fold increase in killing the SK-OV3 tumor cell line against control BiTE” value came out at 2 fold.

B11: Hu012-27 (antibody, IgG1, V domains shown)
VH: QVQLVQSGGGVVQPGRSLRLSCAASGFTFSSYAMHWVRQAPGKGLEWVAVISYDGSNKYYADSVKGRFTISRDNSKNTLYLQMNSLRAEDTTVYYCARDRRYYSSMDVWGQGTTVTVSS
VL: QTVVTQEPSFSVSPGGTITLTCGLSSGSVSTSYYPSWYQQTPGQAPRTLIYNTNTRSSGVPDRFSGSILGNKAALTITGAQADDESHYYCALHMDSGSWVFGGGTQLTVL
notes: Full-length IgG1 (AbVec-hIgG1, AbVec-hIgKappa); also called candidate antibody Hu012-27
In the case of B11, the binding result in assay [1] is reported as “binds”.

B12: Hu012-3 (antibody, IgG1, V domains shown)
VH: QVQLVQSGAEVKKPGESLRISCKGSGYSFTSYWISWVRQMPGKGLEWMGRIDPSDSYTNYSPSFQGHVTISADKSISTAYLQWSSLKASDTAMYYCARHDASGGGPSDYWGQGTLVTVSS
VL: QSVLTQPPSVSAAPGQRVTISCSGSSSNIGDHYVSWYQQLPGTAPKLLIYDNNKRPSGIPDRFSGSKSGTSATLGITGLQTGDEADYYCGTWDSSLSVPNWVFGGGTKVTVL
notes: Full-length IgG1 (AbVec-hIgG1, AbVec-hIgKappa); also called candidate antibody Hu012-3
On to B12, for which the binding result in assay [3] is recorded as “binds”.

B13: Hu012-14 (antibody, IgG1, V domains shown)
VH: EVQLVETGGGLVQPGGSLRLSCAASGFTFSSYGMTWVRQPPGKGLEWVSHISGSGTNTYYADSVKGRFTISRDNSKNTLYLQMNNLGAEDTAVYYCAKLKWGHSGYGDYWGQGTTVTVSS
VL: EIVLTQSPATLSLSPGERATLSCRASQTISRYLAWYQQKPGQAPRLLIYDASNRATGIPARFSGSGSDTDFTLTISSIEPEDFAVYYCQERSNWPQVTFGPGTKLEIK
notes: Full-length IgG1 (AbVec-hIgG1, AbVec-hIgKappa); also called candidate antibody Hu012-14
Turning to B13, the binding result in assay [1] is “binds”.
